B1: Fipivirus E (nucleic acid)
DNA: CTCTTCCGATCTTGGGGGTTCGCCCCCATGTCTCATTTCAACTAGCCGTGTGTCTAGTTAACGCACCGCCTCACCCTGGTCGTTATCGGGTCGGTTCTTGCGACCGTTAGATCGTGAGCGTTTCTGAGGATCAGTTCGTATAAGTTCTCCGGTGTGGCGACCGTAAAATCGTCACGTCCCATGCAATAGATGACGTTAAACTCGTTTGCCAGTTACATAAAGGAATGTTGTTACTTTTAAATTGTCTGTTACATTTAACATCTTGCCAGTATGATGCTACTGTACACTACGGGTGTAGGAACCTTGTAGTGTGACGTATCACTCATATGTGGATGGGTGCTCCAGACCTTTATGGAAGCTCTCAGTTAGTAGTGATCCTTGACTTCATTGAGCCCTGGTAACAGTGGAAGTCAAGATGTATATGTTGCTCAACACACTTCGGTGCTACGAAGCTGTTTGTGGAAGTACTGGCGAGGTTCATTCTGAATCATATGTTTGTCACATAGTCAGGGAGTGCCGTCGCTTACGACGGACCCTTTTTCTTTATAATTACAAATCTGTGTCTCAAGTGTTGTTGGCTGGTTTTCTTCTTCTGTTTTCATTGTTCATATATATACGTCAGAGTGAAAGACTCGGTATATACAAAACTGATCCAGA
modifications: Fipivirus E
B2: Fipivirus C (nucleic acid)
DNA: CGCGGTTAAACCCGCGCAACCTTCTTTCAGCCGCGTCTGAGTAGCGCGGTTAGTCCTGATACACAGTTTCCTGTTGGGTACTGTGTCTTCGGGTGAATGCTCTTGTGTGAATGTTTTAGGCTGTTTAAGGGAAGCGTTTCCCCGTGCGCTGTGAGGGTTTCTCACGCTCTTTCGGGGTGCAGTCTCTTCTGTTGTTCATTAAGATGTATGGATGCACTGTTGTGAAGGATTTGTGAACTGGGGATCGACACCCCGTGAGGGGTGCCCCAGTGTCCATAGGAGTTTGCTGGAGAGGTGTGTTGCTGTAGTGACTATCCGTGACCTGGCATTCTAAGGTGTTGACCCCAACCTGTGAGGGTCTGGATCGCAGTGTTGAAGTGCTTTGGAGGGTTCAATGGGGTTTCTGTAGTGGATATTATGTGCTTGACGACTACTGGTACGAGTGTATTGGGGGTCTACATGTGTGA
modifications: Fipivirus C
B3: RhPV (nucleic acid)
DNA: GATAAAAGAACCTATAATCCCTTCGCACACCGCGTCACACCGCGCTATATGCTGCTCATTAGGAATTACGGCTCCTTTTTTGTGGATACAATCTCTTGTATACGATATACTTATTGTTAATTTCATTGACCTTTACGCAATCCTGCGTAAATGCTGGTATAGGGTGTACTTCGGATTTCCGAGCCTATATTGGTTTTGAAAGGACCTTTAAGTCCCTACTATACTACATTGTACTAGCGTAGGCCACGTAGGCCCGTAAGATATTATAACTATTTTATTATATTTTATTCACCCCCCACATTAATCCCAGTTAAAGCTTTATAACTATAAGTAAGCCGTGCCGAAACGTTAATCGGTCGCTAGTTGCGTAACAACTGTTAGTTTAATTTTCCAAAATTTATTTTTCACAATTTTTAGTTAAGATTTTAGCTTGCCTTAAGCAGTCTTTATATCTTCTGTATATTATTTTAAAGTTTATAGGAGCAAAGTTCGCTTTACTCGCAATAGCTATTTTATTTATTTTAGGAATATTATCACCTCGTAATTATTTAATTATAACATTAGCTTTATCTATTTATA
modifications: Rhopalosiphum padi virus
B4: Crohivirus A (nucleic acid)
DNA: GTTGAAGTCCATTTCTTGCTTGCCCCCGATGAATCCTGTTAAGGCCTCACGGCCCTAAGGGTGAAACTCGGTTATCCCCTCCTGTACTTCGAGAAGATTAGTACAACACTATGAAATCTACATCTTGTGATCCGGGATAACCCCAATCCCAGAAACCTGTGATGGGCGTCACCACCCCTCTTATGGTAACATAAGGGTGTCGCCGCGTTGGCACAGGACCCTTTGGGCTGGATGTTTTTAGTAATGGTGTCGAAGGTCCTATTGAGCTACAGGAGTTTCCTCCGCCCTGGTGAATGCGGCTAATCTTATCCCTGAGCCTAAGGTTGCGATCCAGCAACTTGATGGTCGTAATGCGTAAGTTGGGGGCGGAACCGACTACTTTCCAGAAGGCGTGTTTCTTTGTTTTGTCTGTTACTATGGTGCATGATATAGATATTGAATATTTGATCTTTTTGAGCTGTTTCTTATCTTATTGCTACATCCTTTCAGGTGTTGGATTTACATTTTGGTTAATAAG
modifications: Crohivirus A
B5: Avisivirus B (nucleic acid)
DNA: CACCCCCTACTGCCCTAACCCCCAAAGTTAGTTATAGGGTGGCTCCCTACCCTTACTCCACGGGGTAAGCCCTAACCCGGTTGAATCTCAAGATCAGCCTTAGCGAGGACTATTAGTACCGCTCAAACCCTTTGCCTGTAGTGCCCAGGGGTCACAGAGGGGTGACCCTCTCCCTGGGGCCCAAAAGGCTAGGTGGCAAGACAGGGTCCAAGTGAGGGGCTACTCTAAGTAGCCCCAAGCTGAACATCCTGTCTGAAGCCACCCTTGCAGGGCCAGGTTTGATTGGGGAAACTAGACACCAGCTTTGTCCTGGGATTGGGGGGATATCGAGTTAGTCCAGGAGGTGCGAGTAGATGCCCCCGAAGGTACCCCAGGCACATCTGGGATCTGATCGGGGGCCCGTGACTATACAATAGGTAAACCGGGTTAAAAAACATGAAAGCGCCTCTCTCTTTCCTACTTCTTTTATTGACTGGTGACAAAAATAGCAGT
modifications: Avisivirus B
B6: Avisivirus A (nucleic acid)
DNA: TTCACTCGCTTTCCCCCCCTCTCTATAGGGGCGGTCTTTTAATTCTTATTAATTTCCTACTTTACTATCAAATTTCTTCTAAGTAGGGACTGAGGTCACTTAGCCCTCCCTCTCCTGGGCTTTCCAGGGTTATAGAGGTTCTAAAGCTAAGCCATGTGTCTTGAGCTACACTTAGTACAAAGGTTTAGTAATGATTGTACATGCCAGTAACCTTCTAGTGCCCATGGATTAAAGAGTGGTAACACTCTCCATGGGGCCCGAAAGGCTAGTGGGCATAGTTGGCATCAAGGAAGGGGTCCCCACCCCAACCTGAATTGCTGGCTAGAAGCTCACCTTAGAAGAAGTGCTGGGTGACAACGTGTCCAATCGTGAACGACTGATGGAAACGTGTGGAGATGGATATGTGGGGGTTCACTGAGTAGATGCCCTGAAGGAGAAATCTGATCAGGGGCCCGTGACTATACGCTAGGTAAACCGGGTATAAAAACCATGAAAGGTGGCCCAAAATCTCTTCCTTTTATTTTATTTCTATGTTGGTGACAGTCAAG
modifications: Avisivirus A
B7: Aquamavirus (nucleic acid, listed as Aquamavirus sp.)
DNA: TTCAAAGGTGGCGGGAGAGTTGGCCTCACGCTGTTTAGCGTGAGAGCTGGCTCTCCTGCCCCTTCCCCTGAGCCGGGGATCTTGGCTCATTCCCCTCTTTTCTATCCTCCCTCATTGGACTTTACGGATGACCCGGCATAAACTTGACAACCGATGTTGGATTTCCCTTGTGGCTGTGATGGAGGACATACCCTCGGGTGTAGTTGTGTGCGTGTCGCTCTGCGACTCGAGCTTCAAAGTGGTGCTGAAATATTGCAAGCGTCGTTGCTCGATTAACGGAGTGGTACAATCCTATGAACCCAAGTGCATTCATGCGAAAGCCCCGGAGGGGTGAGTAGCATGGACTCGAATCAGAAGAGCTGGAGCTCGCTTGGTACGGCACGTAGCATTGCTTTGCCTAAAGACCAAGGGGGTATGGCTATAGGTGGGGGCCTATAGCTTGTCCAGTGCTGGTTGACAGACTCGTGCTACGCGTCTGGTTCGAGTATAAGTAGCTGCAACTCACT

test system: HEK293 cells; type: cell-based, human; conditions: luminescence from secreted Gluc in supernatant 24 hours after transfection of HEK293 cells; circular RNA encoding Gluc with the named IRES (UTR truncated to 675 nt)

Molecule	Expression
B1	1.10E+05
B2	1.09E+05
B3	1.10E+05
B4	9.96E+04
B5	8.68E+04
B6	1.91E+05
B7	4.51E+06
